Results: PMC4359615 (Journal of Structural Biology, 2015)

B1: A49 subunit of RNA polymerase I (natural protein, S. cerevisiae)
chain: MSVKRSVSEIEIESVQDQPSVAVGSFFKGFRAPSDTTFDLYKKKKSEKDEFVLHGENERLEYEGYTDSSSQASNQYVVGLFNPEKKSIQLYKAPVLVSKVVSKSSKNLRGPKIKSKSDTRPSALRNALGEAFGTKKAKKAIADLERNRIDSDKLTDSAIDIVDSVRTASKDLPTRAQLDEITSNDRPTPLANIDATDVEQIYPIESIIPKKELQFIRVSSILKEADKEKKLELFPYQNNSKYVAKKLDSLTQPSQMTKLQLLYYLSLLLGVYENRRVNNKTKLLERLNSPPEILVDGILSRFTVIKPGQFGRSKDRSYFIDPQNEDKILCYILAIIMHLDNFIVEITPLAHELNLKPSKVVSLFRVLGAIVKGATVAQAEAFGIPKSTAASYKIATMKVPFKLPEMTRRGRGPRR
B2: A135 subunit of RNA polymerase I (natural protein, S. cerevisiae)
chain: MSKVIKPPGQARTADFRTLERESRFINPPKDKSAFPLLQEAVQPHIGSFNALTEGPDGGLLNLGVKDIGEKVIFDGKPLNSEDEISNSGYLGNKLSVSVEQVSIAKPMSNDGVSSAVERKVYPSESRQRLTSYRGKLLLKLKWSVNNGEENLFEVRDCGGLPVMLQSNRCHLNKMSPYELVQHKEESDEIGGYFIVNGIEKLIRMLIVQRRNHPMAIIRPSFANRGASYSHYGIQIRSVRPDQTSQTNVLHYLNDGQVTFRFSWRKNEYLVPVVMILKALCHTSDREIFDGIIGNDVKDSFLTDRLELLLRGFKKRYPHLQNRTQVLQYLGDKFRVVFQASPDQSDLEVGQEVLDRIVLVHLGKDGSQDKFRMLLFMIRKLYSLVAGECSPDNPDATQHQEVLLGGFLYGMILKEKIDEYLQNIIAQVRMDINRGMAINFKDKRYMSRVLMRVNENIGSKMQYFLSTGNLVSQSGLDLQQVSGYTVVAEKINFYRFISHFRMVHRGSFFAQLKTTTVRKLLPESWGFLCPVHTPDGSPCGLLNHFAHKCRISTQQSDVSRIPSILYSLGVAPASHTFAAGPSLCCVQIDGKIIGWVSHEQGKIIADTLRYWKVEGKTPGLPIDLEIGYVPPSTRGQYPGLYLFGGHSRMLRPVRYLPLDKEDIVGPFEQVYMNIAVTPQEIQNNVHTHVEFTPTNILSILANLTPFSDFNQSPRNMYQCQMGKQTMGTPGVALCHRSDNKLYRLQTGQTPIVKANLYDDYGMDNFPNGFNAVVAVISYTGYDMDDAMIINKSADERGFGYGTMYKTEKVDLALNRNRGDPITQHFGFGNDEWPKEWLEKLDEDGLPYIGTYVEEGDPICAYFDDTLNKTKIKTYHSSEPAYIEEVNLIGDESNKFQELQTVSIKYRIRRTPQIGDKFSSRHGQKGVCSRKWPTIDMPFSETGIQPDIIINPHAFPSRMTIGMFVESLAGKAGALHGIAQDSTPWIFNEDDTPADYFGEQLAKAGYNYHGNEPMYSGATGEELRADIYVGVVYYQRLRHMVNDKFQVRSTGPVNSLTMQPVKGRKRHGGIRVGEMERDALIGHGTSFLLQDRLLNSSDYTQASVCRECGSILTTQQSVPRIGSISTVCCRRCSMRFEDAKKLLTKSEDGEKIFIDDSQIWEDGQGNKFVGGNETTTVAIPFVLKYLDSELSAMGIRLRYNVEPK

Tests used:
[1] = biological target: B2; experiment: cross-linking
[2] = biological target: A190 subunit of RNA polymerase I (S. cerevisiae, UniProt P10964 1-1664); experiment: cross-linking
Sequence of A190 subunit of RNA polymerase I (P10964 whole entry): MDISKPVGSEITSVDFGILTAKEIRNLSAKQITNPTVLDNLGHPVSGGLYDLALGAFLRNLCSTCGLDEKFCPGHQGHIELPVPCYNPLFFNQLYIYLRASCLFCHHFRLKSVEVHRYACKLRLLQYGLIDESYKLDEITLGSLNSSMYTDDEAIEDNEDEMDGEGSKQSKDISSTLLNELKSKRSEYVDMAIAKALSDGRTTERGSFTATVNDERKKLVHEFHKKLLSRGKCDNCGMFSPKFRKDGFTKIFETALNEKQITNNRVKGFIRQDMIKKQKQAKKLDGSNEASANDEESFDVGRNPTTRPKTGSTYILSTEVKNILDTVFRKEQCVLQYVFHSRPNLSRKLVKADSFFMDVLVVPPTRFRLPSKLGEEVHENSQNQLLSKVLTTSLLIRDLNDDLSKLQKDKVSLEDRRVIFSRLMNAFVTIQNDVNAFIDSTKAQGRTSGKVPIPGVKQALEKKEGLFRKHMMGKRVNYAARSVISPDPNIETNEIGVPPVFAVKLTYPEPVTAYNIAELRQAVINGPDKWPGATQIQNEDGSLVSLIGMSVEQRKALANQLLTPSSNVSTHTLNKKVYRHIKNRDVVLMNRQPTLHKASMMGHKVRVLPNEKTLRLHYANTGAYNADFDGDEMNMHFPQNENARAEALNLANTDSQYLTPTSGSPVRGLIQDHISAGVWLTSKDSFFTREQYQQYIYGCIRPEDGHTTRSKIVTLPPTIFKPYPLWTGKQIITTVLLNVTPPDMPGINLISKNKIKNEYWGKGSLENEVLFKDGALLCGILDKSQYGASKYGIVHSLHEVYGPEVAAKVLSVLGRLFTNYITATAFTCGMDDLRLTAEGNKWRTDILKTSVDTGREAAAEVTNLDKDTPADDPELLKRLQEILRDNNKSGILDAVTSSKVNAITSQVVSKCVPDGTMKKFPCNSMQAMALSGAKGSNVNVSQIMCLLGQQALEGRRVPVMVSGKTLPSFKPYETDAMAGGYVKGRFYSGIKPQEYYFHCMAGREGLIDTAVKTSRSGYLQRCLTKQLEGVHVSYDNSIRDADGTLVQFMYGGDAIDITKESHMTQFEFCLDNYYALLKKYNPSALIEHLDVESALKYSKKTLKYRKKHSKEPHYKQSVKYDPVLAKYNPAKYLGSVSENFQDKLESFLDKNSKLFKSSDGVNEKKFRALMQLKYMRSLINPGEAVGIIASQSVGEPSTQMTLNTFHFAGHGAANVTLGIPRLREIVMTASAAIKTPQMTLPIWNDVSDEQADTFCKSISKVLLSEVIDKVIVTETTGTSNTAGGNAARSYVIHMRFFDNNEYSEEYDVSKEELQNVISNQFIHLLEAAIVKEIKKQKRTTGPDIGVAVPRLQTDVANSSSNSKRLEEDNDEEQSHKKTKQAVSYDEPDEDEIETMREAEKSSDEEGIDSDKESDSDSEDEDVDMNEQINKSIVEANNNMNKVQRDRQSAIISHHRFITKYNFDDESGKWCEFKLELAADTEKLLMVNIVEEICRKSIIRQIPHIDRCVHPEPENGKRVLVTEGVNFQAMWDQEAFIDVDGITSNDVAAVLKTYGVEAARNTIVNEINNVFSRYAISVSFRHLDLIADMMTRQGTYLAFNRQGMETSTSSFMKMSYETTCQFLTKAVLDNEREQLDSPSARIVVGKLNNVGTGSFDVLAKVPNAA

binding result [1]	binding result [2]	Binder
binds	binds	B1
–	binds	B2
